Results reported in PMC7020754.

T1: Rv0023 (XRE family transcription regulator) (Mycobacterium tuberculosis, UniProt P9WMI3 1-256)
T1 sequence: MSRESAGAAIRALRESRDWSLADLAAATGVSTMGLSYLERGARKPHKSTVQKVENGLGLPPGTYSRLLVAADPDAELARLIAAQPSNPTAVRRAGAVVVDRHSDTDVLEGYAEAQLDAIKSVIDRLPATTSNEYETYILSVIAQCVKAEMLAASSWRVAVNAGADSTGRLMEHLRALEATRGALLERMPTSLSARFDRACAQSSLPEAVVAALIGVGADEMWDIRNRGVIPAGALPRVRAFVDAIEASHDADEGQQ

B1: OL1M (dsDNA)
DNA 1: CACCCCTTATGTAGAGACGTGTGTATCGCGATTCTCTTGC
DNA 2: GCAAGAGAATCGCGATACACACGTCTCTACATAAGGGGTG
B2: OL3M (dsDNA)
DNA 1: AGAGCCCGCCACAGACAGAGACGCGTGTGCCTATGTTTCG
DNA 2: CGAAACATAGGCACACGCGTCTCTGTCTGTGGCGGGCTCT

Molecular target: T1, Rv0023 (XRE family transcription …)
Assay: EMSA; 8 pmol protein
Conditions: protein: recombinant; tags: His (implied by Ni-NTA purification; pET23a, also printed pET21b); chain copies: 2; label: 32P; blunt

Binder | binding result
B1 | no binding
B2 | no binding
